Each block holds one compound with its values, some of them ahead of it.
Legend:
[1] = target: T1, BfNFeoAB (Bacteroides fragilis, UniProt Q5LFM5); test: hydrogen-deuterium exchange mass spectrometry; type: binding; settings: 25 mM Tris pD 7.5, 300 mM NaCl, 2% glycerol, 1 mM TCEP, 25 °C
T1 construct: gene BF9343_1287; N-terminal soluble domain of natural FeoAB fusion (FeoA, linker, G-protein and GDI domains), residues 1-438, without transmembrane region; from E. coli C43(DE3) deltaacrB; monomer, about 53 kDa; PDB 7R7B covers FeoA residues 1-74 only
T1 sequence (Q5LFM5 1-438): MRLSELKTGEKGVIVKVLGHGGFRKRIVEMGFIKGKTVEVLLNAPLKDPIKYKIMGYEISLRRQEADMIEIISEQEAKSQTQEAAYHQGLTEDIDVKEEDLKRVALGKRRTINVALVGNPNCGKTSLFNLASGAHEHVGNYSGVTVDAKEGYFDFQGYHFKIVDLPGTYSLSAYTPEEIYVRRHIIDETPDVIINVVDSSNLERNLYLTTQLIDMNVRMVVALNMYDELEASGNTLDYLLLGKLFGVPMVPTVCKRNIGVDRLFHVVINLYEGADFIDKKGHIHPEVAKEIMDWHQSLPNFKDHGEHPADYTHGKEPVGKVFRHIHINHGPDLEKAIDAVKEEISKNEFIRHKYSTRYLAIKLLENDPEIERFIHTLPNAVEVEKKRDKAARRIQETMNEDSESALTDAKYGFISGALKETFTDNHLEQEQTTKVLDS

[2] = target: soluble N-terminal domain of Bacteroides fragilis FeoAB (FeoA fused to the N-terminal GTP-binding domain of FeoB) (Bacteroides fragilis); test: SEC; 120-ml Superdex 200, 4 °C, 25 mM Tris pH 7.5, 300 mM NaCl, 2% glycerol, 1 mM TCEP; after IMAC
[3] = target: NFeoB region (G-protein domain and GDI domain) of Bacteroides fragilis FeoAB (Bacteroides fragilis)

Compound: Nc1nc2c(ncn2[C@@H]2O[C@H](COP(=O)(O)OP(=O)(O)NP(=O)(O)O)[C@@H](O)[C@H]2O)c(=O)[nH]1 [GMP-PNP]
hydrogen-deuterium exchange mass spectrometry ([1]; 5 mM GMP-PNP, nonhydrolyzable GTP analog): Binding of the nonhydrolyzable GTP analog with GMP-PNP elicits increases in protein protection

Compound: Nc1nc2c(ncn2[C@@H]2O[C@H](COP(=O)(O)OP(=O)(O)O)[C@@H](O)[C@H]2O)c(=O)[nH]1 [GDP]
hydrogen-deuterium exchange mass spectrometry ([1]; 5 mM GDP): binding of GDP elicits a mixture of protein protection and deprotection

stoichiometry N [2]: 3
Compound: soluble N-terminal domain of Bacteroides fragilis FeoAB (FeoA fused to the N-terminal GTP-binding domain of FeoB) (domain or fragment)

kcat of GTP hydrolysis by BfNFeoAB (FeoA present on the chain), 1D-31P NMR, 37 °C [3]: 0.00071 s⁻¹ | kcat of GTP hydrolysis by BfNFeoB-L (FeoA deleted), malachite green assay, 37 °C [3]: 0.037 s⁻¹
Compound: FeoA domain of Bacteroides fragilis FeoAB (domain or fragment)

— publication PMC8980893, “A fusion of the Bacteroides fragilis ferrous iron import proteins reveals a role for FeoA in stabilizing GTP-bound FeoB” (The Journal of Biological Chemistry, 2022)
